Results on 1 molecule are retold here after patent US20110177501, “BIOSENSOR FOR DETECTION AND VISUALISATION OF SINGLE-STRANDED DNA” (MEDICAL RESEARCH COUNCIL, published 2011).

One series deals with MIANS-E. coli SSB (S92C) (Escherichia coli, UniProt P0AGE0 SEQ:1-177, S92C). Briefly: 25 mM Tris pH 7.5, 200 mM NaCl, 30 C. Conditions: tags: MIANS label on Cys92; chain copies: 4 (stated, tetramer). The method, then: (§1) In order to obtain a molecule suitable for solution measurements, a suitably large fluorescence increase on binding DNA, together with reasonably bright fluorescence quantum yield are the main criteria. Fluorescence spectra of 250 nM labeled E. coli SSB (tetramer concentration) were measured at 30° C. in 25 mM Tris.HCl pH 7.5, 200 mM NaCl, 1 mM DTT, and 5 μM bovine serum albumin.
(§2) Excitation was at the appropriate wavelength for the fluorophore and the emission intensities at the maximum were measured in the absence and presence of saturating dT₇₀. The two coumarins, IDCC and MDCC gave the largest fluorescence enhancement with G26C and this mutant protein labeled with IDCC, IDCC-E. coli SSB, was chosen for further study for two reasons. Firstly it gave consistently a larger increase than MDCC. […] In the case of MDCC, reaction of its maleimide with a protein cysteine causes the production of diastereoisomers. […] In contrast, reaction of IDCC with a thiol should produce only a single molecular species.

In series [1] the target is Alexa Fluor 488-E. coli SSB (S92C) (Escherichia coli, UniProt P0AGE0 SEQ:1-177, S92C). Put plainly: 25 mM Tris pH 7.5, 200 mM NaCl, 30 C. Conditions: tags: Alexa Fluor 488 label on Cys92; chain copies: 4 (stated, tetramer). Here is the method: as §1, §2
For series [2], the target named is Alexa Fluor 488-E. coli SSB (G26C) (Escherichia coli, UniProt P0AGE0 SEQ:1-177, G26C). Briefly: 25 mM Tris pH 7.5, 200 mM NaCl, 30 C. Conditions: tags: Alexa Fluor 488 label on Cys26; chain copies: 4 (stated, tetramer). Here is the method:
as §1, §2

Series [3] deals with 6-IATR-E. coli SSB (S92C) (Escherichia coli, UniProt P0AGE0 SEQ:1-177, S92C). Briefly: 25 mM Tris pH 7.5, 200 mM NaCl, 30 C. Conditions: tags: 6-IATR label on Cys92; chain copies: 4 (stated, tetramer). The method, then:
as §1, §2

Series [4] deals with T1, IDCC-E. coli SSB (G26C) (Escherichia coli, UniProt P0AGE0 SEQ:1-177, G26C (mature protein numbering as printed)). Put plainly: 25 mM Tris pH 7.5, 200 mM NaCl, 30 C. Conditions: tags: IDCC diethylaminocoumarin label on Cys26; chain copies: 4 (stated, tetramer). Here is the method:
as §1, §2

The target in series [5] is Alexa Fluor 546-E. coli SSB (S92C) (Escherichia coli, UniProt P0AGE0 SEQ:1-177, S92C). Briefly: 25 mM Tris pH 7.5, 200 mM NaCl, 30 C. Conditions: tags: Alexa Fluor 546 label on Cys92; chain copies: 4 (stated, tetramer). Here is the method: as §1, §2
The target in series [6] is Alexa Fluor 546-E. coli SSB (G26C) (Escherichia coli, UniProt P0AGE0 SEQ:1-177, G26C). Briefly: 25 mM Tris pH 7.5, 200 mM NaCl, 30 C. Conditions: tags: Alexa Fluor 546 label on Cys26; chain copies: 4 (stated, tetramer). Here is the method: as §1, §2
The target in the next series is MDCC-E. coli SSB (S92C) (Escherichia coli, UniProt P0AGE0 SEQ:1-177, S92C). Briefly: 25 mM Tris pH 7.5, 200 mM NaCl, 30 C. Conditions: tags: MDCC label on Cys92; chain copies: 4 (stated, tetramer). The method, then: as §1, §2
For another series, the target named is IDCC-E. coli SSB (S92C) (Escherichia coli, UniProt P0AGE0 SEQ:1-177, S92C). Briefly: 25 mM Tris pH 7.5, 200 mM NaCl, 30 C. As to conditions: tags: IDCC label on Cys92; chain copies: 4 (stated, tetramer). Here is the method:
as §1, §2

A further series deals with MDCC-E. coli SSB (G26C) (Escherichia coli, UniProt P0AGE0 SEQ:1-177, G26C). Briefly: 25 mM Tris pH 7.5, 200 mM NaCl, 30 C. Conditions: tags: MDCC label on Cys26; chain copies: 4 (stated, tetramer). The method, then: as §1, §2
In series [7] the target is 6-IATR-E. coli SSB (G26C) (Escherichia coli, UniProt P0AGE0 SEQ:1-177, G26C). Put plainly: 25 mM Tris pH 7.5, 200 mM NaCl, 30 C. Conditions: tags: 6-IATR label on Cys26; chain copies: 4 (stated, tetramer). The method, then:
as §1, §2

In series [8] the target is unlabeled E. coli SSB (S92C) (Escherichia coli, UniProt P0AGE0 SEQ:1-177, S92C (mature protein numbering as printed)). Briefly: competition; binds dT70 28-fold more tightly than IDCC-SSB. Conditions: chain copies: 4 (stated, tetramer). Here is the method:
as §1
(§3) In order to determine the effect of labeling on the affinity of E. coli SSB for ssDNA, dT₇₀ was titrated into a mixture of unlabeled E. coli SSB and IDCC-E. coli SSB (FIG. 4). It is apparent that low concentrations of DNA bind mainly to the unlabeled E. coli SSB, as there is only a small increase in fluorescence. This implies that the unlabeled protein has the higher affinity.

The target of series [9] is 6-IATR-E. coli SSB (W88C) (Escherichia coli, UniProt P0AGE0 SEQ:1-177, W88C (mature protein numbering as printed)). Put plainly: tight binding, saturates at 1:1 dT70:tetramer; 200 mM NaCl. As to conditions: tags: 6-IATR rhodamine label on Cys88; chain copies: 4 (stated, tetramer).
Series [10] addresses T1, IDCC-E. coli SSB (G26C). Put plainly: competition; ratio Kd(IDCC-SSB)/Kd(unlabeled SSB); 200 mM NaCl, 30 C. As to conditions: tags: IDCC diethylaminocoumarin label on Cys26; chain copies: 4 (stated, tetramer). Here is the method:
as §1, §3

B1: dT70 (ssDNA)
DNA: TTTTTTTTTTTTTTTTTTTTTTTTTTTTTTTTTTTTTTTTTTTTTTTTTTTTTTTTTTTTTTTTTTTTTT
Take B1: the activity with MIANS-E. coli SSB (S92C) was 0.4 fluorescence ratio +/- dT70; in [1], 3.1 fluorescence ratio +/- dT70; in series [2] it was 3.3 fluorescence ratio +/- dT70; in [3], 1.3 fluorescence ratio +/- dT70; in the series with IDCC-E. coli SSB (G26C) [4], 6.1 fluorescence ratio +/- dT70; in [5], 1.5 fluorescence ratio +/- dT70. Further, the activity in series [6] was 2.3 fluorescence ratio +/- dT70; in the series with MDCC-E. coli SSB (S92C), 2.2 fluorescence ratio +/- dT70; with IDCC-E. coli SSB (S92C), 2.8 fluorescence ratio +/- dT70; in the series with MDCC-E. coli SSB (G26C), 4.9 fluorescence ratio +/- dT70; in [7], 2.8 fluorescence ratio +/- dT70; in [9], ~4.5 fold fluorescence (+/- DNA). For the same molecule, the binding result in series [8] is listed as “binds”. The binding signal with IDCC-E. coli SSB (G26C) [10] was 28 fold Kd vs unlabeled SSB S92C.
